Measured values published in paper PMC10908814.

Biological target: T1, NgAgo (engineered Natronobacterium gregoryi Argonaute) (Natronobacterium gregoryi) (UniProt L0AJX6)
T1 sequence: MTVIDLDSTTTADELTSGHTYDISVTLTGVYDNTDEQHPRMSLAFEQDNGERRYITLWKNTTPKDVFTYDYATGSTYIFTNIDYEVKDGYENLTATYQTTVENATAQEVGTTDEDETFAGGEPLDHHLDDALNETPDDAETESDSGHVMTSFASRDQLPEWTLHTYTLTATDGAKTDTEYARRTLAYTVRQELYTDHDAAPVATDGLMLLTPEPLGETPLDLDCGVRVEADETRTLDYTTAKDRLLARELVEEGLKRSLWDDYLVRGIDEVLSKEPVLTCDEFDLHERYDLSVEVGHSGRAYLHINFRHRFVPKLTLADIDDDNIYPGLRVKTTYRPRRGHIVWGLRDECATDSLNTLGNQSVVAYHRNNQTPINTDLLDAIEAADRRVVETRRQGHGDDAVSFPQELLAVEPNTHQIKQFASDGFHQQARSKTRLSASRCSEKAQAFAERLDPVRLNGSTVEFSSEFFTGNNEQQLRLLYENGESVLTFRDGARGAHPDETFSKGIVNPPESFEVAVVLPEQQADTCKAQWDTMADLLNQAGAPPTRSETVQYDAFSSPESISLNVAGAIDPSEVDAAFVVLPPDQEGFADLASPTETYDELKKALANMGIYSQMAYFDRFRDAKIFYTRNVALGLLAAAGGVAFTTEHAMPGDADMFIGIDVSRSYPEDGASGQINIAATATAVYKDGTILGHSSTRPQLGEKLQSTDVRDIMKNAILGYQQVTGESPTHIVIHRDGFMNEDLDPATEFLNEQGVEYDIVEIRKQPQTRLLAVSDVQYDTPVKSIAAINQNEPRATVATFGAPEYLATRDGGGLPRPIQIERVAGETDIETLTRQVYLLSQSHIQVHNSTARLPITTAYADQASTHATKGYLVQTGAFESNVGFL
Assay: SPR
Settings: 5'-phosphate on guide; SPR: 10 mM HEPES, 150 mM NaCl, 3 mM EDTA, pH 7.4, 0.005% Tween-20, temperature not stated; EMSA: 2% agarose, 1x TAE, 100 V

For “TAAACCCAAAGAATGTCTGAGGGG / CCCTCCTTTTGTAAACAATGCATTCATCGACCTTCCAGCCGGGGTTGGTTCTGCCCCTCTCTCTGTCCTTCAGAGGAACCAGGGACCTCGGGCACCCCAGAGCCCCTCGGGCCCGCCTCCAGGCGCCCTCCTGGTCTCCGCTCCCCTCTGAGCCCCGTTAAACCCAAAGAATGTCTGAGGGGAGCCACCCTCGGGGCCCAGGCCCCAGAGTCACAC / CCCCTCAGACATTCTTTGGGTTTA [g3 guide / EBV cfDNA SPR amplicon]”, the Kd was 5.49 nM.
